Here are results for nine molecules from patent publication US20250223353A1 (BIOTHEUS, published 2025).

In general, IC50 refers to the concentration needed to halve the response being measured. The term EC50 denotes the concentration that produces a half-maximal response.

Assay [1] addresses T1, cynomolgus monkey PVRIG-Fc protein (cynomolgus monkey, UniProt Q6DKI7 41-171 (human entry), limits assumed).
T1 construct: also called cynomolgus PVRIG-Fc protein; not shown: Fc part
T1 chain: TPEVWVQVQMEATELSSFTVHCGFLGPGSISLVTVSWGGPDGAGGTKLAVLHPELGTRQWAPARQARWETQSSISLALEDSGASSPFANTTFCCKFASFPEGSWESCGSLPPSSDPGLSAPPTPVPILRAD
In words: BLI (ForteBio), IgG on AHQ sensor, 100 nM PVRIG-Fc in solution, bivalent, 1:1 model. On the procedure: (§1) Biofilm layer optical interference technology (ForteBio) was used to determine the binding and dissociation rate constant (KD) values of the antibodies and their variants or Fab fragments obtained in Example 1 to human, cynomolgus monkey and mouse PVRIG. ForteBio affinity measurement was performed according to existing methods (Este, P et al., High throughput solution-based measurement of antibody-antigen affinity and epitope binning. Mabs, 2013.5 (2): p270-8).
(§2) The antibody-loaded sensor was continued to be loaded in a high concentration of irrelevant intact antibody for 10 min, saturating the Fc-binding site on the AHQ sensor. The saturated sensor was incubated in 100 nM PVRIG-Fc antigens to the plateau phase, and then the sensor was transferred to an analysis buffer and incubated for at least 2 minutes for measuring dissociation rate. The kinetic analysis was performed using a 1:1 binding model.
(BLI is a label-free optical method that tracks binding on a fibre tip over time.)

In assay [2] the target is T2, mouse PVRIG-Fc protein (mouse).
T2 construct: not shown: Fc part
T2 chain: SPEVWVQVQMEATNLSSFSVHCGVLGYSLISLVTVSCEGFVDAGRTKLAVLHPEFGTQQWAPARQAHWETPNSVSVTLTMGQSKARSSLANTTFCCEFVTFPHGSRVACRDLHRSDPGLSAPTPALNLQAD
The assay is described as above. As to the method:
as §1, §2

A further assay deals with T3, human PVRIG-his protein (human, UniProt Q6DKI7 41-171).
T3 construct: also called PVRIG-his antigen; human PVRIG protein; not shown: his tag
T3 sequence: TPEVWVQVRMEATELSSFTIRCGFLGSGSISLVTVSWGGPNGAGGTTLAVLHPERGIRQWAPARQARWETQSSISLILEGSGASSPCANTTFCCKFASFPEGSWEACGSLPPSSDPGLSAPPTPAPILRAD
In words: BLI (ForteBio), IgG on AHQ sensor, 100 nM PVRIG-his in solution, monovalent, 1:1 model. On the procedure: as §1
The antibody-loaded sensor was incubated in 100 nM PVRIG-his antigen to the plateau phase, and then the sensor was transferred to an analysis buffer and incubated for at least 2 minutes for measuring dissociation rate. The kinetic analysis was performed using a 1:1 binding model.

Assay [3] addresses T2, mouse PVRIG-Fc protein. In words: BLI (ForteBio), IgG on AHQ sensor, 100 nM PVRIG-Fc in solution, bivalent.
For assay [4], the target named is T4, human PVRIG protein with mouse IgG2a Fc tag (human, UniProt Q6DKI7 41-171, limits assumed).
T4 construct: not shown: mouse IgG2a Fc tag
T4 sequence (looked up): T3 sequence
In words: flow cytometry competition: human PVRIG-mouse IgG2a Fc (1 ug/mL) binding to CHO-huCD112 cells. As to the method: Specifically, CHO cells overexpressing human CD112 (CHO-huCD112 cells) were generated by transfection of the pCHO1.0 vector (purchased from Invitrogen) with cDNA encoding human CD112 cloned into the multiple cloning site (MCS), followed by pressure screening. The CHO-huCD112 cells were expanded and adjusted to a cell density of 2×10^6 cells/mL, added to a 96-well flow plate at 100 μL/well, and centrifuged for later use. The purified monoclonal antibody was gradiently diluted with PBS and the diluted sample was added to a 96-well flow plate at 60 μL/well. […] The above incubated samples were added at 100 μL/well to the 96-well flow plate containing CHO-huCD112 cells, incubated at 4° C. for 30 min and washed twice with PBS. APC-conjugated goat anti-mouse IgG antibody diluted 100-fold with PBS was added at 100 μL/well, incubated at 4° C. for 30 minutes and washed twice with PBS. Cells were resuspended with PBS at 100 μL/well, and detected on a CytoFlex flow cytometer, and the corresponding MFI was calculated.
(In flow cytometry, cells or beads pass a laser one at a time.)

Assay [5] deals with T5, human PVRIG on the cell surface (human, UniProt Q6DKI7 41-326).
T5 construct: whole, on cells; also called CHO-huPVRIG cells; human PVRIG protein overexpressed on the surface of CHO cells
T5 sequence (looked up): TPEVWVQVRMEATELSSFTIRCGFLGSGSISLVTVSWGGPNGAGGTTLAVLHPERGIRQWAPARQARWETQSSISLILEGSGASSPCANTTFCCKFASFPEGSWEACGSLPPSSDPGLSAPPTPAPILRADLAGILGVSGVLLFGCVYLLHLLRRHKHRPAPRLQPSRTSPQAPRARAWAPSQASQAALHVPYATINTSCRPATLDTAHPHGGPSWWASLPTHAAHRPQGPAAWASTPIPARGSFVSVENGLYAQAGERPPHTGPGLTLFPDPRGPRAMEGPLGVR
In words: flow cytometry on CHO-huPVRIG cells. On the procedure: (§3) The overexpressing cells were expanded and adjusted to an appropriate cell density, and added to a 96-well flow cytometry plate. After centrifugation, the cells were added with a gradiently diluted sample to be tested, and incubated at 4° C. for 30 minutes. The cells were washed twice with PBS, and added with a fluorescent secondary antibody correspondingly diluted to an appropriate concentration, then incubated at 4° C. for 30 minutes, and washed twice with PBS. Cells were resuspended with PBS, and detected on a CytoFlex flow cytometer, and the corresponding MFI was calculated. Graphpad software was used for graphical analysis to obtain EC50 values.

Assay [6] deals with T6, cynomolgus PVRIG overexpressed on CHO cells (cynomolgus, UniProt A0A2K5WVV8 1-322).
T6 construct: whole, on cells; also called CHO-cynoPVRIG cells
T6 sequence: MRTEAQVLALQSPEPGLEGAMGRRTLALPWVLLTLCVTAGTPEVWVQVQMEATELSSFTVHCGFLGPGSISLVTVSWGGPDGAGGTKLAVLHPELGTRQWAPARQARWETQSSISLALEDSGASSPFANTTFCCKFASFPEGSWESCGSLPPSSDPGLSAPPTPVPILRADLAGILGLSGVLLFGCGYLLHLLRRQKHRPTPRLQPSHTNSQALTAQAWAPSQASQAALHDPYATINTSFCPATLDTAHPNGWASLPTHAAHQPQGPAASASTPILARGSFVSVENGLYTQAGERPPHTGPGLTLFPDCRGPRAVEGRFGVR
In words: flow cytometry on CHO-cynoPVRIG cells. On the procedure:
as §3

Assay [7] concerns the target T1, cynomolgus monkey PVRIG-Fc protein. In words: BLI (ForteBio), PVRIG-Fc on AHQ sensor, 100 nM Fab in solution, monovalent, 1:1 model. On the procedure:
as §1
(§4) The antigen-loaded sensor was incubated in 100 nM Fab solution to the plateau phase, and then the sensor was transferred to an analysis buffer and incubated for at least 2 minutes for measuring dissociation rate. The kinetic analysis was performed using a 1:1 binding model.

Another assay addresses T7, human PVRIG-Fc protein (human, UniProt Q6DKI7 41-171).
T7 construct: also called PVRIG-Fc antigen (human); not shown: Fc part
T7 sequence: T3 sequence
The description is as above. On the procedure:
as §1, §4

Assay [8] addresses Biotin-labeled mouse PVRIG huFc protein (mouse). In words: competition ELISA: biotin mouse PVRIG huFc (2 ug/mL) binding to coated mouse CD112-his. On the procedure: Specifically, mouse CD112-his protein diluted with 1× coating buffer to a final concentration of 1 μg/mL was added to the ELISA plate at 100 μL/well, covered with the film, and coated overnight at 4° C. The coating solution in the ELISA plate was discarded, and the ELISA plate was washed three times with 1×PBST and was blocked with 5% BSA/PBS at 200 μL/well for 2 hours at room temperature. During the blocking period, the samples to be tested were gradient diluted with 1% BSA/PBS to a final volume of 60 μL/well. […] The above co-incubated samples were discarded, the ELISA plate was washed three times with 1×PBST, and SA-HRP diluted with 1% BSA/PBS was added at 100 μL/well and incubated for 1 hour at room temperature.

B1: ADI-56127 (antibody, V domains shown)
VH: QVQLVQSGAEVKKPGSSVKVSCKASGGTESVDAISWVRQAPGQGLEWMGDIIPFFDTDYAQKFQGRVTITADESTSTAYMELSSLRSEDTAVYYCAREGGTSWTHFFDLWGRGTLVTVSS
VL: not shown
notes: Full-length IgG secreted by yeast and purified on Protein A
For B1, the values for the Kd (in [1]; in the assay with mouse PVRIG-Fc protein [2]; with human PVRIG-his protein) were 0.181 nM, 1.66 nM and 0.364 nM, respectively.

B2: ADI-56145 (antibody, V domains shown)
VH: QVQLVQSGAEVKKPGASVKVSCKASGYTFTSYGISWVRQAPGQGLEWVGWISSYDASTKYSQELQGRVTMTTDTSTSTAYMELRSLRSEDTAVYYCARGSPIYEHFNWFDPWGQGTLVTVSS
VL: EIVLTQSPATLSLSPGERATLSCRASQSVSSYLAWYQQKPGQAPRLLIYDSSNRATGIPARFSGSGSGTDFTLTISSLEPEDFAVYYCQQLSHHPLTFGGGTKVEIK
notes: Full-length IgG secreted by yeast and purified on Protein A; also called anti-PVRIG antibody ADI-56145 (full-length IgG obtained from Adimab)
In the case of B2, the Kd in assay [1] was found to be 0.623 nM; with human PVRIG-his protein it was 2.04 nM. Besides, the binding result with mouse PVRIG-Fc protein [3] is recorded as “no binding (tested: 100 nM)”.

B3: ADI-56145-G1LALA (antibody, human IgG1, kappa, L234A L235A, V domains shown)
VH: B2 VH
VL: EIVLTQSPATLSLSPGERATLSCRASQSVSSYLAWYQQKPGQAPRLLIYDSSNRATGIPARFSGSGSGTDFTLTISSLEPEDFAVYYCQQLSHHPLTFGGGTKVEIKR
B3 came in with an IC50 in assay [4] of 1.36 nM. Moreover, the results for the EC50 in [5] and in [6] were 2.29 nM and 37.6 nM, respectively.

B4: ADI-56145 Fab fragment (Fab, V domains shown)
VH: B2 VH
VL: B2 VL
notes: Fab made by papain digestion of the yeast full-length IgG, purified with Kappa Select; also called Fab of ADI-56145
As to B4, the Kd in assay [7] came out at 157 nM; in the assay with human PVRIG-Fc protein, 0.758 nM.

B5: ADI-56249 (antibody, V domains shown)
VH: QVQLVQSGAEVKKPGSSVKVSCKASGGTFSTFAISWVRQAPGQGLEWMGDIIPIFGSNYAQKFQGRVTITADESTSTAYMELSSLRSEDTAVYYCARGPLEGKVSPFDIWGQGTMVTVSS
VL: DIVMTQSPLSLPVTPGEPASISCRSSQSLLHSTGYNYLDWYLQKPGQSPQLLIYVGSTRASGVPDRFSGSGSGTDFTLKISRVEAEDVGVYYCMQERQFPITFGGGTKVEIK
notes: as for B1
Consider B5, for which the Kd in assay [1] worked out at 0.244 nM; with mouse PVRIG-Fc protein [2], 2.62 nM; in the assay with human PVRIG-his protein, 0.872 nM.

B6: ADI-56249 Fab fragment (Fab, V domains shown)
VH: B5 VH
VL: B5 VL
notes: Fab made by papain digestion of the yeast full-length IgG, purified with Kappa Select
For the molecule B6, the Kd in assay [7] stood at 21.2 nM; with human PVRIG-Fc protein, 0.263 nM.

B7: ADI-56249-G1LALA (antibody, human IgG1, kappa, L234A L235A, V domains shown)
VH: B5 VH
VL: DIVMTQSPLSLPVTPGEPASISCRSSQSLLHSTGYNYLDWYLQKPGQSPQLLIYVGSTRASGVPDRFSGSGSGTDFTLKISRVEAEDVGVYYCMQERQFPITFGGGTKVEIKR
Take B7: the IC50 in assay [8] was 3.22 nM; in assay [4] it was 2.07 nM. The results for the EC50 in assay [5] and in [6] were 1.3 nM and 0.396 nM, respectively.

B8: ADI-56204 Fab fragment (Fab, V domains shown)
VH: QVQLVQSGAEVKKPGASVKVSCKASGYTFTHYGIYWVRQAPGQGLEWMGHIYAYSGDTDYAQKLQGRVTMTTDTSTSTAYMELRSLRSDDTAVYYCARGSPTYEHFNWFDPWGQGTLVTVSS
VL: DIQMTQSPSSLSASVGDRVTITCQASDDISDYLNWYQQKPGKAPKLLIYDASSLHTGVPSRFSGSGSGTDFTFTISSLQPEDIATYYCQQYGNLPITFGGGTKVEIK
notes: as for B6
In the case of B8, the Kd amounted to 14.8 nM in assay [7] and 0.383 nM in the assay with human PVRIG-Fc protein.

B9: ADI-56204 (antibody, V domains shown)
VH: B8 VH
VL: B8 VL
notes: as for B1
For the molecule B9, the Kd in assay [1] amounted to 0.197 nM; with human PVRIG-his protein it was 0.425 nM. In the assay with mouse PVRIG-Fc protein [3], the binding result is reported as “no binding (tested: 100 nM)”.
